Reference: article PMC11730744

How the values were obtained:
Orai1β-eGFP [1] = biological target: Orai1β-eGFP (UniProt Q96D31); test: FRET or BRET; confocal FRET in living WT HEK293 cells co-expressing Orai1 variant-eGFP and STIM-mCherry (CMV promoter); resting (control) cells, medium with 1.8 mM Ca2+; whole cell averages
Orai1β-eGFP [2] = biological target: Orai1β-eGFP (UniProt Q96D31); test: FRET or BRET; confocal FRET in living WT HEK293 cells co-expressing Orai1 variant-eGFP and STIM-mCherry (CMV promoter); stimulated with 2 µM thapsigargin for 1 min, 1.8 mM extracellular Ca2+; whole cell averages

Sequence of UniProt Q96D31 (Q96D31 whole entry): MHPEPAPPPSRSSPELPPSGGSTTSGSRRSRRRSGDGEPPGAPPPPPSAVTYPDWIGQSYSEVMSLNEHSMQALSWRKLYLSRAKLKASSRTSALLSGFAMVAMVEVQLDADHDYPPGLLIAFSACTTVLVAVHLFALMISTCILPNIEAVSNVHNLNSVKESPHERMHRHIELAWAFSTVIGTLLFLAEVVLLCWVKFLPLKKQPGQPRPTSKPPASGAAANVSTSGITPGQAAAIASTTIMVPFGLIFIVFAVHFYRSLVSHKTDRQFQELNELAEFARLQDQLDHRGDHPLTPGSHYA

mean nFRET (resting cells) (Orai1β-eGFP [1]): 0.074
mean nFRET (2 µM TG, 1 min) (Orai1β-eGFP [2]): 0.114
Substance: STIM2-mCherry (from UniProt Q9P246 15-746) (natural protein)
